The target of test [1] is B41 ΔCT membrane-bound Env trimer (HIV-1 strain B41 (subtype B)). The experiment in a line: native gel or EMSA.
Test [2] deals with JR-FL E168K SOSIP.664 soluble Env trimer (HIV-1 strain JR-FL (subtype B)) (UniProt Q75760). The experiment in a line: native gel or EMSA.
In test [3] the target is BG505 viral Env trimer from infectious virus (HIV-1 strain BG505 (subtype A)). The experiment in a line: native gel or EMSA.
In test [4] the target is BG505 ΔCT N332 membrane-bound Env trimer (HIV-1 strain BG505 (subtype A)). The experiment in a line: native gel or EMSA.
In test [5] the target is BG505 ΔCT T332 membrane-bound Env trimer (HIV-1 strain BG505 (subtype A)). The experiment in a line: cryo-EM structure.
The target is the same in test [6]. The experiment in a line: native gel or EMSA.
For test [7], the target named is BG505 N332 SOSIP.664 soluble Env trimer (HIV-1 strain BG505 (subtype A)). The experiment in a line: native gel or EMSA.
For test [8], the target named is JR-FL ΔCT membrane-bound Env trimer (HIV-1 strain JR-FL (subtype B)) (UniProt Q75760). The experiment in a line: native gel or EMSA.
The target of test [9] is B41 SOSIP.664 soluble Env trimer (HIV-1 strain B41 (subtype B)). The experiment in a line: native gel or EMSA.
Test [10] deals with B41 viral Env trimer from infectious virus (HIV-1 strain B41 (subtype B)). The experiment in a line: native gel or EMSA.
The target of test [11] is JR-FL viral Env trimer from infectious virus (HIV-1 strain JR-FL (subtype B)). The experiment in a line: native gel or EMSA.
For test [12], the target named is B41 viral Env trimer from infectious virus (HIV-1 strain B41 (subtype B)).

The text below walks through data of paper PMC6135743.

Bounds are passed on as bounds.

In test [1], “B41 ΔCT membrane-bound Env trimer (complex)” gave a stoichiometry N of 3. The molecule “JR-FL E168K SOSIP.664 soluble Env trimer (from UniProt Q75760 1-847) (complex)” displayed a stoichiometry N in [2] of 3.

As to “BG505 viral Env trimer from infectious virus (complex)”, the stoichiometry N in test [3] stood at 3. “BG505 ΔCT N332 membrane-bound Env trimer (complex)” returned a stoichiometry N in test [4] of 3. In turn, PGT151 Fab registered a stoichiometry N (Fabs per trimer) in test [5] of under 2. Regarding “BG505 ΔCT T332 membrane-bound Env trimer (complex)”, the stoichiometry N in test [6] was found to be 3. In the case of “BG505 N332 SOSIP.664 soluble Env trimer (complex)”, in test [7], the stoichiometry N turned out to be 3. The molecule “JR-FL ΔCT membrane-bound Env trimer (from UniProt Q75760 1-847) (complex)” gave a stoichiometry N in [8] of 3. Take “B41 SOSIP.664 soluble Env trimer (complex)”: the stoichiometry N in test [9] came to 3. “B41 viral Env trimer from infectious virus (complex)” registered a stoichiometry N in [10] of 3.

As to “JR-FL viral Env trimer from infectious virus (complex)”, in test [11], the stoichiometry N is 3.

B1: PGT151 monoclonal antibody (bnAb) (antibody, V domains shown)
VH: RVQLVESGGGVVQPGKSVRLSCVVSDFPFSKYPMYWVRQAPGKGLEWVAAISGDAWHVVYSNSVQGRFLVSRDNVKNTLYLEMNSLKIEDTAVYRCARMFQESGPPRLDRWSGRNYYYYSGMDVWGQGTTVTVSS
VL: DIVMTQTPLSLSVTPGQPASISCKSSESLRQSNGKTSLYWYRQKPGQSPQLLVFEVSNRFSGVSDRFVGSGSGTDFTLRISRVEAEDVGFYYCMQSKDFPLTFGGGTKVDLK
B1 displayed a neutralisation of B41 virus, maximal percent (Supplementary Figure 5) in test [12] of under 75%.
